Assay results published in US20200317768A1 (published 2020).

T1: cynomolgus monkey FcγRIIa1 extracellular domain, C-terminal His-tag (cynomolgus monkey)
T1 construct: also called cyno FcγRIIa1; cynoFcgRIIa1; not shown: His-tag added to C-terminus
T1 chain: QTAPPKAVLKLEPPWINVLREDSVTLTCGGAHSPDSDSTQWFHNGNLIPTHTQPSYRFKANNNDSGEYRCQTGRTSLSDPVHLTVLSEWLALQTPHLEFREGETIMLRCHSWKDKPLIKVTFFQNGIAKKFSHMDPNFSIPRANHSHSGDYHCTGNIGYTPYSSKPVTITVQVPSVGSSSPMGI

T2: cynomolgus monkey FcγRIIa2 extracellular domain, C-terminal His-tag (cynomolgus monkey)
T2 construct: also called cyno FcγRIIa2; cynoFcgRIIa2; not shown: His-tag added to C-terminus
T2 chain: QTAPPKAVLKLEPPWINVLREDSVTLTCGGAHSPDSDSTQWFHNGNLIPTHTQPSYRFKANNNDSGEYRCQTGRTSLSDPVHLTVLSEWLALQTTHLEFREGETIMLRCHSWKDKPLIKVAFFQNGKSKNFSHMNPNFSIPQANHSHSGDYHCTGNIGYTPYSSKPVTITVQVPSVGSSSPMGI

T3: cynomolgus monkey FcγRIIa3 extracellular domain, C-terminal His-tag (cynomolgus monkey)
T3 construct: also called cyno FcγRIIa3; cynoFcgRIIa3; not shown: His-tag added to C-terminus
T3 chain: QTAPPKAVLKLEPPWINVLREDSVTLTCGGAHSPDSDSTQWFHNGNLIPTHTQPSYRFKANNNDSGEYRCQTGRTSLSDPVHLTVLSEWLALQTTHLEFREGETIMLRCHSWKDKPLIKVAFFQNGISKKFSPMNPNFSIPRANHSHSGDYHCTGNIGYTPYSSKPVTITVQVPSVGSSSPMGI

T4: cynomolgus monkey FcγRIIb extracellular domain, C-terminal His-tag (cynomolgus monkey)
T4 construct: also called cyno FcγRIIb; cynoFcγRIIb; not shown: His-tag added to C-terminus
T4 chain: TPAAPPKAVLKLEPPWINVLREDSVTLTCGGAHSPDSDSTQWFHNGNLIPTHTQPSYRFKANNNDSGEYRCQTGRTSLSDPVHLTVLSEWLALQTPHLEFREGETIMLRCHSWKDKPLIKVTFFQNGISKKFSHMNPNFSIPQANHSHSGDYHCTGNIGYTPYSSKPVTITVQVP

T5: human FcγRIIaH extracellular domain, C-terminal His-tag (human, UniProt P12318 34-217)
T5 construct: also called human FcγRIIa (type H); FcgRIIaH; not shown: His-tag added to C-terminus
T5 sequence: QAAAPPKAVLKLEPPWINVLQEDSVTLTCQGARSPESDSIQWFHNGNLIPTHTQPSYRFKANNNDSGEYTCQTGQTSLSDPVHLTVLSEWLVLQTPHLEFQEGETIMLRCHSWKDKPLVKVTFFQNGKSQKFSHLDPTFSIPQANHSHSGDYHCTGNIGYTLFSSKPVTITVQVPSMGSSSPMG

T6: human FcγRIIaR extracellular domain, C-terminal His-tag (human, UniProt P12318 34-217)
T6 construct: also called human FcγRIIa (type R); FcgRIIaR; not shown: His-tag added to C-terminus
T6 chain: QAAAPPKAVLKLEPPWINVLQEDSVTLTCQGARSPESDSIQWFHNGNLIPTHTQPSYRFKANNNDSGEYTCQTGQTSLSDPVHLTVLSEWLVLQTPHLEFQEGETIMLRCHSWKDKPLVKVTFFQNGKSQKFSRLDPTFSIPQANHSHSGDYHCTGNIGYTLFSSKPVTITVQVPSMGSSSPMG

T7: human FcγRIIb extracellular domain, C-terminal His-tag (human, UniProt P31994 43-217)
T7 construct: also called FcgRIIb (human); not shown: His-tag added to C-terminus
T7 sequence: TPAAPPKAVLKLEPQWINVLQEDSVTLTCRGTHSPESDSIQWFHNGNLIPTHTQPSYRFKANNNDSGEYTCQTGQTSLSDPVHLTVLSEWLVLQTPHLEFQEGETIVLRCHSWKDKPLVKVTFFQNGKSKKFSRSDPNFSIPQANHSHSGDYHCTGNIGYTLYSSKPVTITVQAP


Assays:
Assay in all cases: SPR (Biacore), antibody captured, FcgR analyte, 25 C
[1] = target: T1, cynomolgus monkey FcγRIIa1 …
Procedure: (§1) The kinetic analysis of interactions between these antibodies and FcγR was carried out using BIACORE® T200 or BIACORE® 4000 (GE Healthcare). HBS-EP+ (GE Healthcare) was used as the running buffer, and the measurement temperature was set to 25° C. A chip produced by immobilizing Protein A. Protein A/G or mouse anti-human IgG kappa light chain (BD Biosciences) onto a Series S Sensor Chip CM4 or CM5 (GE Healthcare) by the amine-coupling method was used. […] After the measurement, the antibody captured on the chip was washed off by allowing reaction with 10 mM glycine-HCl, pH1.5 and 25 mM NaOH so that the chip was regenerated and used repeatedly. The sensorgrams obtained as measurement results were analyzed by the 1:1 Langmuir binding model using the BIACORE® Evaluation Software to calculate the binding rate constant ka (L/mol/s) and dissociation rate constant kd (l/s), and the dissociation constant KD (mol/L) was calculated from these values. […] Regarding such interactions, KD values were calculated using the following 1:1 binding model described in BIACORE® T100 Software Handbook BR1006-48 Edition AE.
(§2) The behavior of interacting molecules according to the 1:1 binding model on BIACORE® can be described by Equation 1: Req=C·R max/(KD+C)+RI, wherein, Req is a plot of steady-state binding levels to analyte concentration. C is concentration, RI is bulk refractive index contribution in the sample, and Rmax is analyte binding capacity of the surface. When this equation is rearranged, KD can be expressed as Equation 2: KD=C·Rmax/(Req−RI)−C. KD can be calculated by substituting the values of Rmax, RI, and C into Equation 1 or Equation 2. From the current measurement conditions, RI=0, C=2 μmol/L can be used.

[2] = target: T2, cynomolgus monkey FcγRIIa2 …
Procedure: as §1, §2

[3] = target: T3, cynomolgus monkey FcγRIIa3 …
Procedure: as §1, §2

[4] = target: T4, cynomolgus monkey FcγRIIb extracellular …
Procedure: as §1, §2

[5] = target: T8, cynomolgus monkey FcγRIIIaS extracellular domain, C-terminal His-tag (cynomolgus monkey, UniProt A3RFZ7 21-206 (rhesus entry))
T8 construct: also called cyno FcγRIIIaS; cynoFcγRIIIaS; not shown: His-tag added to C-terminus
T8 sequence (A3RFZ7 21-206): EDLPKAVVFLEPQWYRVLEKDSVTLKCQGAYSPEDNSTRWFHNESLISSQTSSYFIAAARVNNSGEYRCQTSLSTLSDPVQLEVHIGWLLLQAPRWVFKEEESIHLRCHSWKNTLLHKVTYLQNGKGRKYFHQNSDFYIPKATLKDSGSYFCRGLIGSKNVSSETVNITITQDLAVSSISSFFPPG
Procedure: as §1, §2

[6] = target: T5, human FcγRIIaH extracellular domain, …
Procedure: as §1, §2

[7] = target: T6, human FcγRIIaR extracellular domain, …
Procedure: as §1, §2

[8] = target: T7, human FcγRIIb extracellular domain, …
Procedure: as §1, §2

[9] = target: T9, human FcγRIIIaV extracellular domain, C-terminal His-tag (human, UniProt P08637 17-208)
T9 construct: also called FcgRIIIaV; not shown: His-tag added to C-terminus
T9 sequence (P08637 17-208 F176V): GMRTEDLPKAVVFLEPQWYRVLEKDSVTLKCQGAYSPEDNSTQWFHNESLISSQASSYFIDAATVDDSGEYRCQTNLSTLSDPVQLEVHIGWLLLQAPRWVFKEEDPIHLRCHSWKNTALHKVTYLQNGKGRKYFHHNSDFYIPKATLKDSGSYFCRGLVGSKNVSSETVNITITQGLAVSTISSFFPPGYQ
Procedure: as §1, §2

Row | Kd [1] [nM] | Kd [2] [nM] | Kd [3] [nM] | Kd [4] [nM] | Kd [5] [nM] | Kd [6] [nM] | Kd [7] [nM] | Kd [8] [nM] | Kd [9] [nM] | Binder
1 | 4000 | 4400 | 5800 | 950 | 4000 | 510 | 300 | 260 | 8100 | M103205H795-MY325/M103202L889-SK1 (antibody, human IgG1, kappa) heavy: QVTLKESGPVLVKPTETLTLTCTVSGIDLSHDDISWVRQAPGKGLEWVGIISYAGSTYYASWAKGRLTISKDTSKNQVVLTMTNMDPVDTATYYCARGVPAYSHGGDLWGQGTLVTVSSASTKGPSVFPLAPSSKSTSGGTAALGCLVKDYFPEPVTVSWNSGALTSGVHTFPAVLQSSGLYSLSSVVTVPSSSLGTQTYICNVNHKPSNTKVDKKVEPKSCDKTHTCPPCPAPELLDGPSVFLFPPKPKDTLMISRTPEVTCVVVDVSDEDPEVKFNWYVDGVEVHNAKTKPREEQYNSTYRVVSVLTVLHQDWLNGKEYKCKVSNKALPKPIEKTISKAKGQPREPQVYTLPPSREEMTKNQVSLTCLVKGFYPSDIAVEWESNGQPENNYKTTPPVLDSDGSFFLYSKLTVDKSRWQQGNVFSCSVMHEALHNHYTQKSLSLSP light: DIVMTQSPATLSLSPGERATLSCTSSQSVYHANWLSWFQQKPGQPPKLLIYWASTLAYGVPSRFSGSGSGTDFTLTISSLQPEDAATYYCAGGYGGGRYAFGQGTKVEIKRTVAAPSVFIFPPSDEQLKSGTASVVCLLNNFYPREAKVQWKVDNALQSGNSQESVTEQDSKDSTYSLSSTLTLSKADYEKHKVYACEVTHQGLSSPVTKSFNRGEC
2 | 1900 | 3200 | 3700 | 590 | 2300 | 270 | 210 | 160 | 6400 | M103205H795-MY329/M103202L889-SK1 (antibody, human IgG1, kappa) heavy: QVTLKESGPVLVKPTETLTLTCTVSGIDLSHDDISWVRQAPGKGLEWVGIISYAGSTYYASWAKGRLTISKDTSKNQVVLTMTNMDPVDTATYYCARGVPAYSHGGDLWGQGTLVTVSSASTKGPSVFPLAPSSKSTSGGTAALGCLVKDYFPEPVTVSWNSGALTSGVHTFPAVLQSSGLYSLSSVVTVPSSSLGTQTYICNVNHKPSNTKVDKKVEPKSCDKTHTCPPCPAPELLDGPSVFLFPPKPKDTLMISRTPEVTCVVVDVSDEDPEVKFNWYVDGVEVHNAKTKPREELYNSTYRVVSVLTVLHQDWLNGKEYKCKVSNKALPKPIEKTISKAKGQPREPQVYTLPPSREEMTKNQVSLTCLVKGFYPSDIAVEWESNGQPENNYKTTPPVLDSDGSFFLYSKLTVDKSRWQQGNVFSCSVMHEALHNHYTQKSLSLSP light: DIVMTQSPATLSLSPGERATLSCTSSQSVYHANWLSWFQQKPGQPPKLLIYWASTLAYGVPSRFSGSGSGTDFTLTISSLQPEDAATYYCAGGYGGGRYAFGQGTKVEIKRTVAAPSVFIFPPSDEQLKSGTASVVCLLNNFYPREAKVQWKVDNALQSGNSQESVTEQDSKDSTYSLSSTLTLSKADYEKHKVYACEVTHQGLSSPVTKSFNRGEC
3 | 3400 | 4800 | 5300 | 1000 | 4300 | 350 | 200 | 170 | 9900 | M103205H795-MY327/M103202L889-SK1 (antibody, human IgG1, kappa) heavy: QVTLKESGPVLVKPTETLTLTCTVSGIDLSHDDISWVRQAPGKGLEWVGIISYAGSTYYASWAKGRLTISKDTSKNQVVLTMTNMDPVDTATYYCARGVPAYSHGGDLWGQGTLVTVSSASTKGPSVFPLAPSSKSTSGGTAALGCLVKDYFPEPVTVSWNSGALTSGVHTFPAVLQSSGLYSLSSVVTVPSSSLGTQTYICNVNHKPSNTKVDKKVEPKSCDKTHTCPPCPAPELLDGPSVFLFPPKPKDTLMISRTPEVTCVVVDVSEEDPEVKFNWYVDGVEVHNAKTKPREELYNSTYRVVSVLTVLHQDWLNGKEYKCKVSNKALPKPIEKTISKAKGQPREPQVYTLPPSREEMTKNQVSLTCLVKGFYPSDIAVEWESNGQPENNYKTTPPVLDSDGSFFLYSKLTVDKSRWQQGNVFSCSVMHEALHNHYTQKSLSLSP light: DIVMTQSPATLSLSPGERATLSCTSSQSVYHANWLSWFQQKPGQPPKLLIYWASTLAYGVPSRFSGSGSGTDFTLTISSLQPEDAATYYCAGGYGGGRYAFGQGTKVEIKRTVAAPSVFIFPPSDEQLKSGTASVVCLLNNFYPREAKVQWKVDNALQSGNSQESVTEQDSKDSTYSLSSTLTLSKADYEKHKVYACEVTHQGLSSPVTKSFNRGEC
